Assay results from patent US20130022590A1, “Compositions Comprising Zinc Finger Domains and Uses Therefor” (priority 2009, published 2013).

Experiments:
[1] = tested on: 17-nt RNA oligonucleotide containing a single AGGUAA motif; test: Gel shift assay of F12 with 17-nt oligonucleotide; type: binding
Description: Gel Shift assays e.g., FIGS. 1B, 32A, were carried out using standard protocols. In brief, oligonucleotides were 5′ end-labelled with T4 polynucleotide kinase and annealed. Binding reactions were set up in a volume of 30 μL and contained a constant concentration of ^32P-labeled probe (0.1 pmol) and increasing concentrations of F12, in a buffer consisting of 10 mM Mops (pH 7.2), 50 mM KCl, 5 mM MgCl2, 1 mM DTT, 0.03 mg/mL heparin, and 5% glycerol. Binding reactions were set up on ice and incubated at 4° C. for 30 min, after which time 15 μL of each sample was loaded onto a prerun 8% native polyacrylamide gel made up in 0.5× Tris-borate buffer, and electrophoresed (250V, 1 h, 4° C.). The oligonucleotide sequence used for gel shift experiments was GCAACCAGGUAAAGUCU (SEQ ID NO: 28); the site was mutated by changing the central GGU to CUG.
To determine whether the AGGUAA motif was sufficient for binding, the binding of the double finger construct F12 to a 17-nt RNA oligonucleotide containing a single AGGUAA motif was tested as described in Section 1.4 above with dsDNA, ssDNA, and dsRNA also tested as controls.

[2] = tested on: 5′ splice site from exon 3 of the Tra2β minigene (CUCUGAAUCUAGGUAAGAAAG); test: Surface plasmon resonance competition binding; details: 750 nM F12, 1 molar equivalent competitor RNA; compared with exons 1 and 2
Description: Competition binding experiments were carried out by flowing a solution of F12 over a streptavidin chip coated with a biotinylated ssRNA oligonucleotide (containing the sequence AGGUAA) in the presence of an unlabeled competitor oligonucleotide.
Binding experiments were performed in triplicate at 25° C. on a BIACORE 3000 (Biacore). A 5′ biotin-labeled RNA oligonucleotide containing the 5′ splice site from exon 3 of the Tra2β minigene ([…]; SEQ ID NO: 29) was purified by size exclusion chromatography (Superdex 75), and unlabeled competitor oligonucleotides i.e., GCGAGCGGUACGUAGA from exon 1 (SEQ ID NO: 30), AGGAAUAAGUGAAGCUG from exon 2 (SEQ ID NO: 31), and […] from exon 3 (SEQ ID NO: 32) were used without further purification. Protein and RNA samples were dialysed into 10 mM sodium phosphate (pH 7.2), 50 mM NaCl, 1 mM DTT, and 0.005% NP20 and filtered. The biotinylated RNA was heated to 65° C. for 5 min, cooled on ice, and then immobilized onto a streptavidin-coated sensor chip to a total of approximately 160 relative units. Solutions of 750 nM F12 in the presence of 1 molar equivalent of each competitor RNA were injected in random order over the sensor chip (at a flow rate of 20 μL/min for 120 sec) and allowed to undergo a 120-sec dissociation time; a further 300-sec interval was allowed between injections. Data were analyzed by using BIA Evaluation software (Biacore). […]

[3] = tested on: ssRNA pool containing a randomized 25-nt sequence; test: SELEX in vitro site selection; type: binding; details: up to 13 rounds of selection
Description: A ZRANB2-F12 SELEX protocol was developed, based on that used by Sakashita E. and Sakamoto H.1994 Acids Res 22:4082-4086. In brief, a library of ssRNA sequences was incubated with GST-F12 on glutathione Sepharose beads, and after washing protein—RNA complexes were eluted with glutathione and the selected RNA was reverse-transcribed and amplified by PCR. Sequencing of selected sequences was carried out after 7, 9, and 13 rounds of selection.
An oligonucleotide harbouring a 25-nucleoride (nt) random sequence surrounded by 2 primer binding sites with an estimated complexity of 1.2×10^12 (sampling complete sequence space for 20-nt sequences) was amplified by 10 rounds of PCR as previously described in Sakashita E., and Sakamoto H.1994 Nucleic Acids Res 22: 4082-4086, then purified by using a QIAquick gel extraction kit (e.g., QIAGEN) according to manufacturer's instructions. RNA was transcribed from 13 pmol of dsDNA template, then extracted with phenol/chloroform and ethanol-precipitated according to established methods in the art. The RNA pellet was resuspended in water […], and unincorporated nucleotides were removed by Sephadex G-25 Quick Spin columns (Roche). RNA was quantified by absorbance at 260 nm.
Binding reactions were carried out in SELEX buffer [10 mM Mops (pH 7.0), 50 mM KCl, 5 mM MgCl2, 5% glycerol, 1 mM DTT, 0.1% Triton, […], Complete protease inhibitor]. […]

[4] = tested on: ssRNA containing two AGGUAA sites (AGGUAAAGGUAA, SEQ ID NO: 26); test: Fluorescence anisotropy titration, double-site ssRNA; type: binding
Description: Fluorescence Anisotropy titrations e.g., as shown in FIGS. 1D-F, 8 and 35, were carried out using standard protocols. In brief, 5′-Fluorescein-labeled RNA oligonucleotides were quantified by A260, correcting for fluorescein absorbance by using A493. For single-site experiments, the sequence GCAACCAGGUAAAGUCU (SEQ ID NO: 28), or single base mutants thereof, was used. For double-site experiments, two AGGUAA sites were separated by different length sequences as indicated, and the total oligonucleotide lengths were kept constant by the symmetrical addition of adenines to each end. The anisotropy titrations were performed with a starting RNA concentration of 50 nM in a buffer comprising either 10 mM Tris (pH 8.0), 50 mM KCl, 5 mM MgCl2, 0.05 mg/mL heparin, and 1 mM DTT (for GST fusion constructs) or 10 mM Mops (pH 7.3), 50 mM NaCl, 0.05 mg/mL heparin, and 1 mM DTT (for ZRANB2-F12). RNasin (Promega) was also added to the protein solution to a concentration of 2 units/μL. Protein was titrated into this starting solution and anisotropy values measured on a Cary Eclipse fluorescence spectrophotometer fitted with manual polarizer and long-pass filters set to 475 and 515 nm for excitation and emission, respectively. Excitation and emission wavelengths were set at 495 and 520 nm, respectively (10-nm slits) and the temperature was maintained at 25° C. by using a block temperature controller. Association constants were determined by nonlinear least squares regression analysis using a 1:1 binding model.
The importance of the spacing between AGGUAA motifs was assessed by measuring binding of F12 to double sites that were separated by −1 to 8 nt (where −1 denotes the sequence AGGUAAGGUAA SEQ ID NO: 33; FIG. 1E, lanes 5-10).

- reduction in binding to the chip by competitor 5′ splice site oligonucleotide of exon 3 [2]: largest reduction in binding
- effect on binding of scrambling both sites ([4]; FIG. 1E, lane 3): effectively eliminated binding
B1: F12: F1 and F2 domains, residues 1-95 of human ZRANB2 (protein, UniProt O95218 1-95, looked up, fragment)
chain: MSTKNFRVSDGDWICPDKKCGNVNFARRTSCNRCGREKTTEAKMMKAGGTEIGKTLAEKSRGLFSANDWQCKTCSNVNWARRSECNMCNTPKYAK
modifications: F1-F2 zinc fingers GST fusion in some uses
notes: F1 and F2 domains, residues 1-95 of human ZRANB2
- effect of mutation of the central GGU to CUG [1]: abrogated the interaction
- nucleic acid type selectivity of the interaction ([1]; dsDNA, ssDNA, dsRNA tested as controls): strongly selective for ssRNA
- consensus ssRNA sequence recognized [3]: AGGUAA(N1-8)AGGUAA
- affinity (association constant) for AGGUAAAGGUAA ([4]; FIG. 1E, lane 6): 1.9e+07 M⁻¹
- affinity for double site with cytosine-rich spacer versus penta-adenine spacer ([4]; FIG. 1E, lanes 10 and 8): same affinity
- affinity versus spacing between AGGUAA motifs ([4]; double sites separated by −1 to 8 nt, adenines inserted): increased monotonically
- effect on binding of randomizing one of the AGGUAA motifs ([4]; sequence AGAAUGAGGUAA, FIG. 1E, lane 4): reduced the binding by a small, but reproducible, amount
